Where no end group is shown, it is not given here.

The data set concerns the molecule itself. Put plainly: negative-stain TEM + thioflavin-T fluorescence; peptide dissolved in DMSO, diluted to 1 mg/mL in 20 mM Tris, pH 8.0, incubated at 37 °C for 48 h.

B1: CAV1(168-178) peptide (peptide)
peptide: SNVRINLQKEI
modifications: not fully specified
notes: Caveolin-1, residues 168-178 of the α-isoform; The ends of the two caps as printed seem swapped (a rink amide resin gives a C-terminal amide; acetyl is usually N-terminal); also called CAV1 C-terminal peptide; CAV1 C-terminus; source: synthetic peptide (Fmoc solid phase, HPLC purified)
Regarding B1, the binding result is reported as “binds”.

These data come from paper PMC8539922, “Reconstitution of Caveolin-1 into Artificial Lipid Membrane: Characterization by Transmission Electron Microscopy and Solid-State Nuclear Magnetic Resonance” (Molecules, 2021).
